Assay results published in patent publication US20240043859A1, “HERBICIDE-RESISTANT PROTEIN, AND GENE AND USE THEREOF” (QINGDAO KINGAGROOT CHEMICAL COMPOUND CO., LTD., priority 2020, published 2024).
“Also recorded” adds a separate entry of the source.

B1: QYD55: AAD-like enzyme, SEQ ID NO. 109 (protein)
chain: MARPFDIEPLDATFGAVVRGVKVAALDDVTWRALHDAWLQYALLIFPGQHLSREAQIAFAKRFGPLEFEMAPISNVRADGSVRAEAENDDVIKVLKGNMGWHCDSTYMPVQAKGAVFSAEVVPGAGGQTGWADMRAAYDALDGDLRARIENLSAYHSLYYSQAKLDHRPSKSSAYSGYGFHDGPVPLRPLVKVHPETGRKSLLIGRHAHNIPGMDADESTRLLQSLVDFACRPPRIYHHHWTAGDTVVWDNRCLLHQATPWDMTQPRVMWHSRIAGDPASEAALA
modifications: Synthetic polypeptide, QYD55, D55
B2: QYD51: AAD-like enzyme, SEQ ID NO. 101 (protein)
chain: MARTLDIEPIDATFGAVVRGIKVAEVDDETFRALYDAWLEYALLIFPDQHLKRDQQIAFAKRFGPLEFEMTAISNVRSDGTLRLEKDNDDVMKVLKGNMGWHHDSTYMPVQAKGAVFSAEEVPTIGGRTGFADMRAAYDALDPAMKARIEGLNAYHSLHYSQGRVGHQTKKSDGEYSGYGLHDGPVPLRPLVKTHPETGRKSLLAGRHAHNIPGLAQEESDRLLRELIDFACQPPRIYHHDWTPGEAVVWDNRCLMHQATPWDMTQRRIMWHSRIAGDPASESARPQP
modifications: Synthetic polypeptide, QYD51, D51
B3: QYD57: AAD-like enzyme, SEQ ID NO. 113 (protein)
chain: MPQHFDVAPVDATFGAVVTNLKLANLDEPAFRELYATWLEHALLIFPGQFLTREQQIAFARRFGALEFEMAAISNVKSDGTLRREADNDDVVKILKGNMGWHADSTYMPLQAKGAVFSAKVVPSARGETGWADMRAAYDALDAAVRDRVERLSAYHSLHYSQAKAGFQHKDKKSEYSGYGLHDGPVPLRPLVKTHPETGRKSLLIGRHAHNIPGMEPEESERLLDGLVEFACQAPRTYHHSWKPGEAVIWDNRCLLHRAMPWDMTEPRIMWHSRIAGDPASEAAIN
modifications: Synthetic polypeptide, QYD57, D57
B4: QYD30: AAD-like enzyme, SEQ ID NO. 59 (protein)
chain: MALSLTPLTPGFVAEASGLDLTRPLDAAAVRTIEQAMDDYAVLVFRNQPLDQDQQIRFAQGFGPLDLGLRKVKGGAHRFDHAELADISNVTVDGSVAGRDHAKIVGNIANQLWHSDSSFQRPRAKYSMLSAVVVPQDGGQTEFADLRAAYDHLPDGMKAAIGDLQAVHYALHSRFLLGDTEYTQAQRDALPAVRWPLVQTDPRSGRKILFVGIHACEVVGMTVAEGRMLLLDLLEHATQREFVYRHHWRVGDLVMWDNTATLHRGRRFDLAQRRELRRATTEEVRLSAEARAAA
modifications: Synthetic polypeptide, QYD30, D30
B5: QYD58: AAD-like enzyme, SEQ ID NO. 115 (protein)
chain: MARTFDIEPLAGTTFGAVVRGMKVAILDDAGWRDLYAAWLKYALLVFPGQHLKRDEQIAFAKRFGALEFEMAALSNVKSDGTLRQEKDNDDMMKILKGNMGWHADSTYMPVQAKGAVFSAEIVPGAGGQTGFADMRAAYDALDAGRKAKVERLAAHHSLHYSQSKLGHQTKKQDGEYSGYGLHDGPVPLRPLVKTHPETGRKSLLIGRHAHNIPGMDKAESERLLQELVDFACQPPRVYHHDWTAGDAVVWDNRCLLHQATPWDMTQPRVMWHSRIAGDPRSEAALGVTAVSAAASG
modifications: Synthetic polypeptide, QYD58, D58
B6: QYD53: AAD-like enzyme, SEQ ID NO. 105 (protein)
chain: MASTLSLQPLEGITFGAVATGFRIAELDEPTWQALHDAWLDHALLIFPGQFLTRDEQIAFARRFGPLEFEMAAISNVKPDGTLRLEKDNDDMMKVLKGNMGWHADSTYMPVQAKGAVFSAEVVPTIGGETGWADMRAAYEALDAATREKIDGLSAFHSLHYSQSKLGHQTQKSDGQYNGYGLHDGPVPLRPLVKTHPETGRKSLLIGRHAHNIPGMDKAESERFLDGLIAFACQPPRVYHHHWAPGDVVVWDNRCLLHQATPWDMTQPRVMWHSRIAGDPASEAGLAA
modifications: Synthetic polypeptide, QYD53, D53
B7: QYD56: AAD-like enzyme, SEQ ID NO. 111 (protein)
chain: MARTFDVQPLDATFGAVISGVKLAALDDETWRELYATWLQYALLVFPGQHLSRDQQIAFARRFGPLEFEIIALSNVKSDGTIRSEVENDDVIKVLKGNMGWHADSTYMPVQAKGAVFTAEVVPSVGGQTGWADMRAAYDALDGATRQKVEQLSAYHSLHYSQSKLGHQHKPGSAYSGYGFHDGPVPLRPLVKTHPETGRKSLLIGRHAHNIPGMDKDESARFLEDLVASACQPPRIYHHTWAAGDAVVWDNRCLLHQATPWDMTQPRVMWHSRIAGDPLSEAALG
modifications: Synthetic polypeptide, QYD56, D56
B8: QYD52: AAD-like enzyme, SEQ ID NO. 103 (protein)
chain: MTRTLDIEPIDATFGAVVRGIKVAEVDDETFRALYDAWLQYALLIFPDQHLQRDQQIAFAKRFGPLEFEMTAISNVRSDGTLRLEKDNDDVMKILKGNMGWHHDSTYMPVQAKGAVFSAEEVPTIGGRTGFADMRAAYDALDPAMKARIEGLNAYHSLHYSQGKVGHQTRKADGEYSGYGLHDGPVPLRPLVKTHPETGRKSLLAGRHAHNIPGLSQEASDSLLRELIDFACQPPRIYHHDWTPGDAVVWDNRCLMHQATPWDMTQRRIMWHSRIAGDPASESSLAA
modifications: Synthetic polypeptide, QYD52, D52

Experiments:
[1] = Chromogenic reaction of degrading herbicides in bacteria: 2,4-D; type: cell-based, Escherichia coli; details: recombinant E. coli expressing the gene, 2,4-D added to the medium, red = phenols
Procedure, shortened: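 Colour from 2,4-D degradation was detected at A510 after 5 min at room temperature, with 4-aminoantipyrine and ferricyanide added to culture supernatant in pH 10 borate. Cultures were AAD12-expressing or empty-vector (pET15b) BL21(DE3), grown overnight at 28 °C with 0.5 mM 2,4-D, 0.1 mM IPTG and 2 mM α-ketoglutarate.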

[2] = type: cell-based, Escherichia coli
[3] = test system: Arabidopsis thaliana; test: Herbicide resistance of transgenic Arabidopsis thaliana seedlings on plate medium (root growth); type: in vivo; details: Arabidopsis overexpressing the gene
Procedure, shortened: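 After 3 days of cold treatment at 4 °C, seeds were cultured at 22 °C under a 16 h/8 h light cycle on MS herbicide medium (0.3 μM 2,4-D in the screen). Root growth was scored against wild-type seedlings at one week. The material was T2 AAD-overexpressing lines (AtUbi10 promoter, MAS terminator, hygromycin marker), two events each, tested with 2,4-D, 2,4-DB sodium and MCPA.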

[4] = test system: Arabidopsis thaliana; test: as above; type: in vivo; details: plate medium with 2,4-D (0.3 μmol)
[5] = Chromogenic reaction of degrading herbicides in bacteria: triclopyr; type: cell-based, Escherichia coli; details: recombinant E. coli expressing the gene
Experimental: To transform the plasmids to be tested, an AAD12-expressing plasmid and a blank control plasmid pET15b were respectively transformed into the protein expression E. coli BL21(DE3) strains. A monoclone was selected and inoculated in a 10 ml centrifuge tube with 3 ml LB medium, and cultivated at 37° C., 200 rpm for 6-8 hours. […] The temperature was switched to 28° C. and the cultivation continued overnight. In the next morning, 200 μL of each bacteria solution was taken and centrifuged to precipitate thallus, 180 μL of the supernatant was taken and added in a 96-well plate, and 20 μL of borate buffer of pH 10 was added. Then the mixture was added with 2 μL of 8% potassium ferricyanide and mixed well, followed by adding 2 μL of 2% 4-aminoantipyrine, and placed at room temperature for 5 min to observe the color and detect the A510 value. […]

Molecule | Chromogenic reaction of degrading herbicides in bacteria: 2,4-D [1] | Chromogenic reaction of degrading herbicides in bacteria: MCPA [2] | Resistance of transgenic Arabidopsis thaliana: 2,4-D [3] | 2,4-D resistance of T1 generation transgenic seedlings (seminal root growth) [4] | Resistance of transgenic Arabidopsis thaliana: MCPA [3] | further results
B1 | Yes | Yes | Yes | showing tolerance to 2,4-D |  | Chromogenic reaction of degrading herbicides in bacteria: 2,4-D ([1]; listed as D55): could degrade 2,4-D; also recorded: capable of degrading 2,4-D
B2 | Yes | Yes | Yes | showing tolerance to 2,4-D | Yes | Chromogenic reaction of degrading herbicides in bacteria: 2,4-D ([1]; listed as D51): could degrade 2,4-D; also recorded: capable of degrading 2,4-D
B3 | Yes | Yes | Yes | showing tolerance to 2,4-D | Yes | Chromogenic reaction of degrading herbicides in bacteria: 2,4-D ([1]; listed as D57): could degrade 2,4-D; also recorded: capable of degrading 2,4-D
B4 | Yes | Yes | Yes |  |  | Chromogenic reaction of degrading herbicides in bacteria: 2,4-D ([1]; listed as D30): could degrade 2,4-D; also recorded: capable of degrading 2,4-D; Chromogenic reaction of degrading herbicides in bacteria: Triclopyr [5]: Yes; Chromogenic reaction of degrading herbicides in bacteria: Triclopyr ([5]; listed as D30): slight degradation
B5 | Yes | Yes |  |  |  | Chromogenic reaction of degrading herbicides in bacteria: 2,4-D ([1]; listed as D58): could degrade 2,4-D; also recorded: capable of degrading 2,4-D; Chromogenic reaction of degrading herbicides in bacteria: Triclopyr [5]: Yes; Chromogenic reaction of degrading herbicides in bacteria: Triclopyr ([5]; listed as D58): slight degradation
B6 | Yes | Yes | Yes | showing tolerance to 2,4-D | Yes | Chromogenic reaction of degrading herbicides in bacteria: 2,4-D ([1]; listed as D53): could degrade 2,4-D; also recorded: capable of degrading 2,4-D
B7 |  | Yes | Yes | showing tolerance to 2,4-D |  | Chromogenic reaction of degrading herbicides in bacteria: 2,4-D ([1]; listed as D56): could degrade 2,4-D; also recorded: capable of degrading 2,4-D
B8 | Yes | Yes | Yes | showing tolerance to 2,4-D |  | Chromogenic reaction of degrading herbicides in bacteria: 2,4-D ([1]; listed as D52): could degrade 2,4-D; also recorded: capable of degrading 2,4-D
